Assay results published in article PMC4163360.

Target: selenomethionyl (Se-Met) labeled MJ0927 (Methanocaldococcus jannaschii)
Experiment: crystal structure; Se-Met MJ0927, P2_(1) crystal form, MAD phasing; crystals grown at 4°C, 5% PEG3350, 0.1 M sodium acetate pH 5.0, 0.3 M sodium formate, 0.1 M ammonium sulfate, 3% PGA-LM; six molecules in the asymmetric unit

stoichiometry N: 6
Substance: selenomethionyl (Se-Met) labeled MJ0927 (natural protein)
